{"source": "patent US20030235860A1", "about": "“Interactions between AR, ER, TR2, and TR4” (priority 1999, published 2003)", "key": {"[1]": {"tested_on": "PSA", "test": "Northern blot of endogenous PSA in LNCaP cells", "assay_type": "cell-based, human", "conditions": "LNCaP cells", "description": "Total RNA from the DHT-treated transfected LNCaP cells was prepared by the ultracentrifugation method as described. Lee, et al., J: Biol. Chem. 273, 13437-13443 (1998). The probe was obtained from exon 3 of PSA gene and labeled with a-32p dCTP.\nTo rule out the potential artificial effects linked to transfected reporter assays, the expression of endogenous prostate specific antigen (PSA, an androgen target that is widely used as a marker for prostate cancer progression) in LNCaP cells was measured by Northern blot analysis. Total RNA (25 μg) from LNCaP cells, which were transfected with either pCMX-TR4 or pCMX vector using SuperFect (Qiagen), was applied into a formamide RNA gel, then transferred onto a Nylon membrane, and then hybridized with a 32P-PSA gene fragment from the exon 3. P-actin was used as an internal control. […] The level of secreted PSA protein in the medium measured by ELISA, also confirmed this conclusion. This in vivo TR4-mediated suppressive effect strongly supports the above reporter assays.\nTotal RNA from transfected LNCaP cells was prepared using TRIZOL reagents (Life Technology) as instructed by manufacturer. The probe was obtained from the PSA gene by PCR and labeled with 32P dCTP. Northern hybridization was performed as described previously [Mu X. M. et al. (2002) J Biol Chem 275:23877-23883]."}, "[2]": {"tested_on": "MCF7-TR2 cells", "test": "MTT growth assay, MCF7-TR2 cells", "assay_type": "cell-based", "conditions": "MCF7-TR2 cells; 10 nM E2, and/or 2 mg/ml doxycycline (TR2 induction)", "description": "(A) Growth assays were performed by MTT method as instructed by manufacturer (Sigma). 5×10^3 MCF7-pBIG and MCF7-TR2 cells were seeded in 24-well plates and incubated in RPMI with 10% CD-FCS for 48 h. […] After 3- and 5-day treatment, cells were harvested for MTT assay. Data represents the relative folds of MTT O.D.570 values at day 5 divided by that at day 3. […] Cells were then trypsinized and fixed overnight in 70% Ethanol. After cells were incubated with 1 mg/ml RNase A (Sigma) and propidium iodide (Roche Molecular Biochemicals), the DNA contents of cells were measured by a flow cytometry. (C) Percentage of growth suppression by TR2. MCF7-TR2 cells were seeded at 5×10^3 cells per well in 24-well plates. […] The treatments were changed every two days. The indices of cell growth were determined by MTT assay. The MTT values from cells without doxycycline were set as 100% in each kind of treatment. Values are represented by the percentage of growth suppression from cells with doxycycline to that without doxycycline."}, "[3]": {"biological_target": "T1, TR2 (Homo sapiens, UniProt P13056)", "T1 sequence (P13056 1-603)": "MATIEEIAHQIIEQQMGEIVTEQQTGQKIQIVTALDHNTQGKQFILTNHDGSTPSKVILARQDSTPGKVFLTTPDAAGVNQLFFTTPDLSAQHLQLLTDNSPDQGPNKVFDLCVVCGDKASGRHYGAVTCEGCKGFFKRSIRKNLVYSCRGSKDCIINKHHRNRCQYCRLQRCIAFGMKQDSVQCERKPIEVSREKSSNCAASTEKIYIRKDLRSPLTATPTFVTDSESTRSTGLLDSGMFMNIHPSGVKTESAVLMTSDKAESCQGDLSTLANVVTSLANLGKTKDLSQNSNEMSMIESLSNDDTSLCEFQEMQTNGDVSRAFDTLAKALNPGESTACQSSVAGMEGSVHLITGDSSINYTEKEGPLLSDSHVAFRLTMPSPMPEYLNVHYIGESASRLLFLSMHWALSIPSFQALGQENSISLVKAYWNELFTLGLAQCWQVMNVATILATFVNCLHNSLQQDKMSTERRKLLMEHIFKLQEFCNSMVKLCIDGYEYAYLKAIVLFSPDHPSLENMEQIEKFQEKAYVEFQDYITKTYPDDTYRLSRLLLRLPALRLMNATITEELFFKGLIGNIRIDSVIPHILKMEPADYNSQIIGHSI", "test": "GST-ER fragment pull-down of [35S]-TR2", "assay_type": "binding", "parameters": "host or cells: in vitro translation, TNT reticulocyte lysate", "conditions": "for Interaction with [35S]-TR2: GST-ER fragments, presence of 1 μM E2, Example 1; for Interaction with TR2: GST-fused ER peptides, presence or absence of E2, Example 2", "description": "Fusion proteins of GST-TR2, GST-ER segments and GST were obtained by transforming expressing plasmids into BL21(DE3) pLysS competent bacteria followed with 2-hour IPTG induction. GST-proteins were then purified by mixing Glutathione-Sepharose™ 4B (Pharmacia) into bacteria lysates on a rotating disk at 4° C. for 40 mm followed by washing with 1 mL NENT buffer (20 mM Tris-HCL (pH 8.0), 100 mM NaCl, 1 mM EDTA, 6 mM MgCl2, 1 mM Dithiothretiol, 8% Glycerol, 1 mM PMSF and 0.5% (v/v) NP-40). The ER, AR, RXRA., and TR2 proteins labeled with [35S] were generated in vitro by using the TNT reticulocyte lysate system (Promega). For the in vitro interaction, the glutathione-Sepharose bound GST-proteins were resuspended with 100 μl of interaction buffer (20 mM HEPES pH 7.9, 150 mM KCl, 5 mM MgCl2. 0.5 mM EDTA, 0.5 mM Dithiothretiol, 0.1% (v/v) NP-40, 0.1% (w/v) BSA and 1 mM PMSF) and mixed with 5 μl of […] at 4° C. for 3 h. After extensive washes with NENT buffer, the bound proteins were separated on an SDS/8% PAGE and visualized by using autoradiography.\nThe in vitro GST pull-down assay was applied to examine the interaction between the TR2 and ER. In vitro-translated, [35S]-labeled ER, AR, and RXRα proteins were incubated with GST or GST-TR2 bound on glutathione-Sepharose beads. After extensive washing, proteins were separated on an SDS/8% PAGE and visualized by using autoradiography.\nGST alone and GST fusion proteins were purified by Glutathione-Sepharose 4B beads as instructed by manufacturer (Amersham Pharmacia). The pull-down assay was performed with 5 μl of in vitro-translated [^35S]-labeled proteins as described previously (Yeh, S. et al. (2000) Proc. Natl. Acad. Sci. USA 97, 11256-61)."}, "[4]": {"biological_target": "T2, estrogen receptor (ER), full-length (human, UniProt P03372 1-595)", "T2 construct": "35S-labeled when in vitro translated for the pull-downs; endogenous in MCF7 cells for the co-immunoprecipitation; also called ERα; pSG5-ER", "T2 sequence": "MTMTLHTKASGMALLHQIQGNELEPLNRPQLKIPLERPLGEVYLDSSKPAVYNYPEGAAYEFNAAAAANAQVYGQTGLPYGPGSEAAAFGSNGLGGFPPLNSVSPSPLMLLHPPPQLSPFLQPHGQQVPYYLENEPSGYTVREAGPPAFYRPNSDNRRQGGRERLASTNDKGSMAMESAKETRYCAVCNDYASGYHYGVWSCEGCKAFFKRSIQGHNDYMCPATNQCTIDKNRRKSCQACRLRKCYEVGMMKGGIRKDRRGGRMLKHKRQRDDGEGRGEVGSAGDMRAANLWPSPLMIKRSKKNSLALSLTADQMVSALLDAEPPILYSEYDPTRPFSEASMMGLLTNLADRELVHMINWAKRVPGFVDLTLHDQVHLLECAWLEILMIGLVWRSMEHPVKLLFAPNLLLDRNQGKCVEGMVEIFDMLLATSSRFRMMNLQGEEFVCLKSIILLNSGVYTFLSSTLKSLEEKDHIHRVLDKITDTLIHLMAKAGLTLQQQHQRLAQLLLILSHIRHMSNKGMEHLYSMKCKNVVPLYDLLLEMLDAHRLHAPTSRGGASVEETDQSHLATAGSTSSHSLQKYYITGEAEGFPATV", "test": "Table 4, summary of interactions tested; assay not given"}}}
{"molecule": "C[C@]12CCC(=O)C[C@@H]1CC[C@@H]1[C@@H]2CC[C@]2(C)[C@@H](O)CC[C@@H]12", "note": "[DHT, hihydroxytestosterone, reference compound]", "values": [{"measurement": "PSA mRNA expression", "setting": "[1]; 10 nM DHT, pCMV-TR2, Example 4", "value": "induces PSA mRNA expression"}, {"measurement": "Induction of PSA transcript", "setting": "[1]; 24 hours of DHT treatment", "value": "about 2.5 fold"}]}
{"molecule": "C[C@H]1c2cccc(O)c2C(=O)C2=C(O)[C@]3(O)C(=O)C(C(N)=O)=C(O)[C@@H](N(C)C)[C@@H]3[C@@H](O)[C@@H]21", "note": "[doxycycline, reference compound]", "values": [{"measurement": "Cell growth, relative folds of MTT O.D.570 at day 5 divided by day 3", "setting": "[2]", "value": 11.1, "unit": "fold"}]}
{"molecule": "GST-ER-DBD: GST fusion of aa 123-340 of ER (protein, left off: a dimerising Fc or GST; small tags and cut ends, GST fusion of aa 123-340 of ER) PHGQQVPYYLENEPSGYTVREAGPPAFYRPNSDNRRQGGRERLASTNDKGSMAMESAKETRYCAVCNDYASGYHYGVWSCEGCKAFFKRSIQGHNDYMCPATNQCTIDKNRRKSCQACRLRKCYEVGMMKGGIRKDRRGGRMLKHKRQRDDGEGRGEVGSAGDMRAANLWPSPLMIKRSKKNSLALSLTADQMVSALLDAEPPILYSEYDPTRPFSEA", "values": [{"measurement": "Interaction with [35S]-TR2", "setting": "[3]", "value": "not"}]}
{"molecule": "GST-ER-#2: GST fusion of ER aa 123-340 (protein, left off: a dimerising Fc or GST; small tags and cut ends) PHGQQVPYYLENEPSGYTVREAGPPAFYRPNSDNRRQGGRERLASTNDKGSMAMESAKETRYCAVCNDYASGYHYGVWSCEGCKAFFKRSIQGHNDYMCPATNQCTIDKNRRKSCQACRLRKCYEVGMMKGGIRKDRRGGRMLKHKRQRDDGEGRGEVGSAGDMRAANLWPSPLMIKRSKKNSLALSLTADQMVSALLDAEPPILYSEYDPTRPFSEA", "values": [{"measurement": "Interaction with TR2", "setting": "[3]", "value": "can interact"}]}
{"molecule": "TR4 LBD (row label of Table 4) (receptor, not shown: Fusion partner: GST in the pull-down with ER, GAL4-DBD in the hybrid assays with AR) AASTEKIYIRKDLRSPLIATPTFVADKDGARQTGLLDPGMLVNIQQPLIREDGTVLLATDSKAETSQGALGTLANVVTSLANLSESLNNGDTSEIQPEDQSASEITRAFDTLAKALNTTDSSSSPSLADGIDTSGGGSIHVISRDQSTPIIEVEGPLLSDTHVTFKLTMPSPMPEYLNVHYICESASRLLFLSMHRARSIPAFQGLGQDCNTSLVRACWNELFTLGLAQCAQVMSLSTILAAIVNHLQNSIQEDKLSGDRIKQVMEHIWKLQEFCNSMANWDIDGYEYAYLKAIVLFSPDHPGLTSTSQIEKFQEKAQMELQDYVQKTYSEDTYRLARILVRLPALRLMSSNITEELFFTGLIGNVSIDSIIPYILKMETAEYNGQITGVSL", "values": [{"measurement": "binding result", "setting": "[4]", "value": "binds"}]}
{"molecule": "GST-ER-N: GST fusion of aa 1-165 of ER (protein, left off: a dimerising Fc or GST; small tags and cut ends, GST fusion of aa 1-165 of ER) MTMTLHTKASGMALLHQIQGNELEPLNRPQLKIPLERPLGEVYLDSSKPAVYNYPEGAAYEFNAAAAANAQVYGQTGLPYGPGSEAAAFGSNGLGGFPPLNSVSPSPLMLLHPPPQLSPFLQPHGQQVPYYLENEPSGYTVREAGPPAFYRPNSDNRRQGGRERL", "values": [{"measurement": "Interaction with [35S]-TR2", "setting": "[3]", "value": "not"}]}
{"molecule": "GST-ER-#I: GST fusion of ER aa 1-165 (protein, left off: a dimerising Fc or GST; small tags and cut ends) MTMTLHTKASGMALLHQIQGNELEPLNRPQLKIPLERPLGEVYLDSSKPAVYNYPEGAAYEFNAAAAANAQVYGQTGLPYGPGSEAAAFGSNGLGGFPPLNSVSPSPLMLLHPPPQLSPFLQPHGQQVPYYLENEPSGYTVREAGPPAFYRPNSDNRRQGGRERL", "values": [{"measurement": "Interaction with TR2", "setting": "[3]", "value": "not"}]}
{"molecule": "TR2 DBD (row label of Table 4) (receptor, not shown: GST fusion partner of pGEX-KG (GST-TR2-#2)) DLSAQHLQLLTDNSPDQGPNKVFDLCVVCGDKASGRHYGAVTCEGCKGFFKRSIRKNLVYSCRGSKDCIINKHHRNRCQYCRLQRCIAFGMKQDSVQCERKPIEVSREK", "values": [{"measurement": "binding result", "setting": "[4]", "value": "binds"}]}
{"molecule": "TR2 N-T (row label of Table 4) (receptor, also called TR2 N-terminal domain; not shown: GST fusion partner of pGEX-KG (GST-TR2-#1)) MATIEEIAHQIIEQQMGEIVTEQQTGQKIQIVTALDHNTQGKQFILTNHDGSTPSKVILARQDSTPGKVFLTTPDAAGVNQLFFTTPDLSAQHLQLLTDNSPDQGPNKVFDL", "values": [{"measurement": "binding result", "setting": "[4]", "value": "no binding"}]}
